Consider 48 sequences from publication PMC10683472, “Deep Learning-Driven Library Design for the De Novo Discovery of Bioactive Thiopeptides” (ACS Central Science, 2023).

The test concerns the target T1, IRAK4 (Homo sapiens, UniProt Q9NWZ3).
T1 sequence (Q9NWZ3 1-460): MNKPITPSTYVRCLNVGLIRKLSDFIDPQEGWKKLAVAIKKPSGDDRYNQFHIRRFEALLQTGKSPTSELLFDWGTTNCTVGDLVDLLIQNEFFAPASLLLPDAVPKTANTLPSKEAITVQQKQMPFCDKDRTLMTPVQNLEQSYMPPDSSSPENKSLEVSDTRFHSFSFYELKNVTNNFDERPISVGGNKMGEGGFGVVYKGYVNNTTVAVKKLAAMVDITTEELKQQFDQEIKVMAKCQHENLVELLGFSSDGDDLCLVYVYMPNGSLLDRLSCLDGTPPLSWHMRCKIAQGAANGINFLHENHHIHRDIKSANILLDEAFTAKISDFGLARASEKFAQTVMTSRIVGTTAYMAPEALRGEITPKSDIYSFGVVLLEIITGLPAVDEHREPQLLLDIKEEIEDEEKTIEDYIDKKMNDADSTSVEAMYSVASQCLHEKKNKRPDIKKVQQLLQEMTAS
In words: mRNA display affinity selection against IRAK4, NGS abundance. The format is binding. More on the design: acids 1-460; NP_057207.2) was purchased from Carna Biosciences; purchased Carna Biosciences (Kobe, Japan). Particulars: Top100 selection hits, NGS.

As for SIMWKRRVFK, where the note is “IRAK4 selection pulldown (+)”, the Library fraction was determined as 0.0001 and the Raw reads was found to be 9. For the setting “IRAK4 selection pulldown (-)”, this sequence yielded a Library fraction of 8e-5 and a Raw reads of 11.
Regarding SIVWKRRIYR, for the setting “IRAK4 selection pulldown (+)”, the Library fraction is reported as 0.005 and the Raw reads came to 541. For the setting “IRAK4 selection pulldown (-)”, this sequence registered a Library fraction of 0.00216 and a Raw reads of 289.
For the setting “IRAK4 selection pulldown (+)”, SIYWKRRRYK yielded a Library fraction of 0.0001 and a Raw reads of 11.
The like results for SLLWHRRIYC were, in that order, 0.0002 and 19.
As to SLLWKKRMYK, the Library fraction is, setting by setting: (IRAK4 selection pulldown (+)) 0.0009; (IRAK4 selection pulldown (-)) 0.00027. The Raw reads is given as 95 (IRAK4 selection pulldown (+)) and 36 (IRAK4 selection pulldown (-)).
For SLLWKQRVWK, in that order: 0.005, 0.00324, 525 and 433.
For SLLWKRRCYN, in that order: 0.0038, 0.00172, 409 and 230.
For SLLWKRRICR, in that order: 0.0006, 0.00016, 65 and 21.
With SLLWKRRIMK, the Library fraction runs as follows: (IRAK4 selection pulldown (+)) 0.180; (IRAK4 selection pulldown (-)) 0.066. For the same sequence, the Raw reads is, setting by setting: (IRAK4 selection pulldown (+)) 19248; (IRAK4 selection pulldown (-)) 8762.
For the setting “IRAK4 selection pulldown (+)”, SLLWKRRMMK showed a Library fraction of 0.0001 and a Raw reads of 11.
For the sequence SLLWKRRVYC, the Library fraction by setting is: (IRAK4 selection pulldown (+)) 0.0007; (IRAK4 selection pulldown (-)) 0.00057. For the same sequence, the Raw reads by setting is: (IRAK4 selection pulldown (+)) 78; (IRAK4 selection pulldown (-)) 76.
Under “IRAK4 selection pulldown (+)”, SLLWKRRVYT displayed a Library fraction of 0.0002 and a Raw reads of 17. Under “IRAK4 selection pulldown (-)”, this sequence gave a Library fraction of 0.0001 and a Raw reads of 14.
In the case of SLLWRKRIYR, the Library fraction amounted to 0.003 (IRAK4 selection pulldown (+)) and 0.00109 (IRAK4 selection pulldown (-)). Besides, the Raw reads came out at 312 (IRAK4 selection pulldown (+)) and 146 (IRAK4 selection pulldown (-)).
For SLLWRRRVYK, in that order: 0.080, 0.046, 8519 and 6174.
The like results for SLLYKRRIYK were, in that order, 0.044, 0.026, 4704 and 3431.
For the sequence SLRWKNRNHK, the Library fraction was 0.0006 (IRAK4 selection pulldown (+)) and 0.00013 (IRAK4 selection pulldown (-)). The Raw reads by setting is: (IRAK4 selection pulldown (+)) 62; (IRAK4 selection pulldown (-)) 17.
Where the note is “IRAK4 selection pulldown (-)”, SLRWKRRIWS had a Library fraction of 9e-5 and a Raw reads of 12.
With SLYWKSRIWR, the Library fraction runs as follows: (IRAK4 selection pulldown (+)) 0.0026; (IRAK4 selection pulldown (-)) 0.00072. The Raw reads (IRAK4 selection pulldown (+)) stood at 283 and the Raw reads (IRAK4 selection pulldown (-)) was 96.
As to SMERKAITWLWT, for the setting “IRAK4 selection pulldown (-)”, the Library fraction is reported as 0.00019 and the Raw reads amounted to 25.
The like results for SMERQFITWHWT were, in that order, 0.00013 and 17.
The like results for SMHRRYITWRWT were, in that order, 0.115 and 15412.
Take SMKRKFITWHWT: where the note is “IRAK4 selection pulldown (-)”, the Library fraction came out at 7e-5 and the Raw reads turned out to be 10.
For SMKRPFITWHWT, in that order: 9e-5 and 12.
For SMKRQFITRHWT, in that order: 7e-5 and 9.
For SMKRQFITWHWT, in that order: 0.376 and 50248.
On to SMKRQFITWRWT, for which, for the setting “IRAK4 selection pulldown (-)”, the Library fraction worked out at 0.00015 and the Raw reads is reported as 20.
The like results for SMKRQLITWHWT were, in that order, 0.00037 and 50.
The like results for SMKRRFITWHWT were, in that order, 8e-5 and 11.
SMLFKRRIYK registered a Library fraction (IRAK4 selection pulldown (+)) of 0.211 and a Library fraction (IRAK4 selection pulldown (-)) of 0.165. Further, the Raw reads by setting is: (IRAK4 selection pulldown (+)) 22521; (IRAK4 selection pulldown (-)) 22079.
In the case of SMLFKRRIYR, where the note is “IRAK4 selection pulldown (+)”, the Library fraction came out at 0.0001 and the Raw reads was 15.
As for SMLFKRRMYK, where the note is “IRAK4 selection pulldown (+)”, the Library fraction is given as 0.0003 and the Raw reads was 27. Where the note is “IRAK4 selection pulldown (-)”, this sequence registered a Library fraction of 0.00019 and a Raw reads of 26.
Regarding SMLFKRRVYK, under “IRAK4 selection pulldown (+)”, the Library fraction turned out to be 0.0001 and the Raw reads worked out at 10.
As to SMLWGRRIYR, where the note is “IRAK4 selection pulldown (+)”, the Library fraction is recorded as 0.0016 and the Raw reads was 168. Where the note is “IRAK4 selection pulldown (-)”, this sequence yielded a Library fraction of 0.00036 and a Raw reads of 48.
For SMLWKRKIWG, in that order: 0.0047, 498, 0.00177 and 237.
For SMLWKRRICI, for the setting “IRAK4 selection pulldown (+)”, the Library fraction is recorded as 0.0002 and the Raw reads is 17.
In the case of SMLWRRRKYA, the Library fraction runs as follows: (IRAK4 selection pulldown (+)) 0.0001; (IRAK4 selection pulldown (-)) 7e-5. The Raw reads reads like this: (IRAK4 selection pulldown (+)) 16; (IRAK4 selection pulldown (-)) 10.
For the setting “IRAK4 selection pulldown (-)”, SMQRKTIHWKWT showed a Library fraction of 0.00109 and a Raw reads of 145.
The like results for SMQRRVIKWTWA were, in that order, 0.00016 and 21.
The like results for SMRRQFITWHWT were, in that order, 9e-5 and 12.
As to SQLCHRRIYK, under “IRAK4 selection pulldown (+)”, the Library fraction was determined as 0.0001 and the Raw reads was 12.
SQLWNRRLYK: the Library fraction is on record as 0.0009 (IRAK4 selection pulldown (+)) and 0.00059 (IRAK4 selection pulldown (-)). Besides, the Raw reads amounted to 93 (IRAK4 selection pulldown (+)) and 79 (IRAK4 selection pulldown (-)).
Under “IRAK4 selection pulldown (+)”, SQLYKRRIWM gave a Library fraction of 0.0001 and a Raw reads of 9.
SQLYKRRIYQ: where the note is “IRAK4 selection pulldown (+)”, the Library fraction is reported as 0.0003 and the Raw reads worked out at 37. In addition, where the note is “IRAK4 selection pulldown (-)”, the Library fraction was 0.00027 and the Raw reads was 36.
For SQRWRCRNYQ, in that order: 0.0011, 116, 0.002 and 267.
The like results for SQRWRNRNYR were, in that order, 0.013, 1364, 0.010 and 1401.
For SQRYKQRCYK, in that order: 0.0017, 182, 0.0012 and 160.
Where the note is “IRAK4 selection pulldown (+)”, SQRYKRRNYK registered a Library fraction of 0.0009 and a Raw reads of 92. Under “IRAK4 selection pulldown (-)”, the Library fraction amounted to 0.00037 and the Raw reads stood at 49.
Under “IRAK4 selection pulldown (+)”, SQRYRNRNYQ gave a Library fraction of 0.0023 and a Raw reads of 242. For the same sequence, where the note is “IRAK4 selection pulldown (-)”, the Library fraction came to 0.00064 and the Raw reads is reported as 85.
